In publication PMC12702194:

Biological target: Fibronectin 1 (FN1) (human (endogenous in C28/I2))
Test: proximity ligation; Duolink in situ PLA on decellularized, fixed matrix of C28/I2 WT cells cultured for 72 h; primary antibodies mouse anti-fibronectin or mouse anti-Col II with rabbit anti-ERp57; controls: matrix of ERp57 KO cells and omitted primary antibodies; some cultures incubated with 10 mM DTT for 15 min at 37°C before decellularization (PLA signal significantly decreased)

Chain of Fibronectin 1 (FN1) (human (endogenous in C28/I2)) (P02751 32-2477): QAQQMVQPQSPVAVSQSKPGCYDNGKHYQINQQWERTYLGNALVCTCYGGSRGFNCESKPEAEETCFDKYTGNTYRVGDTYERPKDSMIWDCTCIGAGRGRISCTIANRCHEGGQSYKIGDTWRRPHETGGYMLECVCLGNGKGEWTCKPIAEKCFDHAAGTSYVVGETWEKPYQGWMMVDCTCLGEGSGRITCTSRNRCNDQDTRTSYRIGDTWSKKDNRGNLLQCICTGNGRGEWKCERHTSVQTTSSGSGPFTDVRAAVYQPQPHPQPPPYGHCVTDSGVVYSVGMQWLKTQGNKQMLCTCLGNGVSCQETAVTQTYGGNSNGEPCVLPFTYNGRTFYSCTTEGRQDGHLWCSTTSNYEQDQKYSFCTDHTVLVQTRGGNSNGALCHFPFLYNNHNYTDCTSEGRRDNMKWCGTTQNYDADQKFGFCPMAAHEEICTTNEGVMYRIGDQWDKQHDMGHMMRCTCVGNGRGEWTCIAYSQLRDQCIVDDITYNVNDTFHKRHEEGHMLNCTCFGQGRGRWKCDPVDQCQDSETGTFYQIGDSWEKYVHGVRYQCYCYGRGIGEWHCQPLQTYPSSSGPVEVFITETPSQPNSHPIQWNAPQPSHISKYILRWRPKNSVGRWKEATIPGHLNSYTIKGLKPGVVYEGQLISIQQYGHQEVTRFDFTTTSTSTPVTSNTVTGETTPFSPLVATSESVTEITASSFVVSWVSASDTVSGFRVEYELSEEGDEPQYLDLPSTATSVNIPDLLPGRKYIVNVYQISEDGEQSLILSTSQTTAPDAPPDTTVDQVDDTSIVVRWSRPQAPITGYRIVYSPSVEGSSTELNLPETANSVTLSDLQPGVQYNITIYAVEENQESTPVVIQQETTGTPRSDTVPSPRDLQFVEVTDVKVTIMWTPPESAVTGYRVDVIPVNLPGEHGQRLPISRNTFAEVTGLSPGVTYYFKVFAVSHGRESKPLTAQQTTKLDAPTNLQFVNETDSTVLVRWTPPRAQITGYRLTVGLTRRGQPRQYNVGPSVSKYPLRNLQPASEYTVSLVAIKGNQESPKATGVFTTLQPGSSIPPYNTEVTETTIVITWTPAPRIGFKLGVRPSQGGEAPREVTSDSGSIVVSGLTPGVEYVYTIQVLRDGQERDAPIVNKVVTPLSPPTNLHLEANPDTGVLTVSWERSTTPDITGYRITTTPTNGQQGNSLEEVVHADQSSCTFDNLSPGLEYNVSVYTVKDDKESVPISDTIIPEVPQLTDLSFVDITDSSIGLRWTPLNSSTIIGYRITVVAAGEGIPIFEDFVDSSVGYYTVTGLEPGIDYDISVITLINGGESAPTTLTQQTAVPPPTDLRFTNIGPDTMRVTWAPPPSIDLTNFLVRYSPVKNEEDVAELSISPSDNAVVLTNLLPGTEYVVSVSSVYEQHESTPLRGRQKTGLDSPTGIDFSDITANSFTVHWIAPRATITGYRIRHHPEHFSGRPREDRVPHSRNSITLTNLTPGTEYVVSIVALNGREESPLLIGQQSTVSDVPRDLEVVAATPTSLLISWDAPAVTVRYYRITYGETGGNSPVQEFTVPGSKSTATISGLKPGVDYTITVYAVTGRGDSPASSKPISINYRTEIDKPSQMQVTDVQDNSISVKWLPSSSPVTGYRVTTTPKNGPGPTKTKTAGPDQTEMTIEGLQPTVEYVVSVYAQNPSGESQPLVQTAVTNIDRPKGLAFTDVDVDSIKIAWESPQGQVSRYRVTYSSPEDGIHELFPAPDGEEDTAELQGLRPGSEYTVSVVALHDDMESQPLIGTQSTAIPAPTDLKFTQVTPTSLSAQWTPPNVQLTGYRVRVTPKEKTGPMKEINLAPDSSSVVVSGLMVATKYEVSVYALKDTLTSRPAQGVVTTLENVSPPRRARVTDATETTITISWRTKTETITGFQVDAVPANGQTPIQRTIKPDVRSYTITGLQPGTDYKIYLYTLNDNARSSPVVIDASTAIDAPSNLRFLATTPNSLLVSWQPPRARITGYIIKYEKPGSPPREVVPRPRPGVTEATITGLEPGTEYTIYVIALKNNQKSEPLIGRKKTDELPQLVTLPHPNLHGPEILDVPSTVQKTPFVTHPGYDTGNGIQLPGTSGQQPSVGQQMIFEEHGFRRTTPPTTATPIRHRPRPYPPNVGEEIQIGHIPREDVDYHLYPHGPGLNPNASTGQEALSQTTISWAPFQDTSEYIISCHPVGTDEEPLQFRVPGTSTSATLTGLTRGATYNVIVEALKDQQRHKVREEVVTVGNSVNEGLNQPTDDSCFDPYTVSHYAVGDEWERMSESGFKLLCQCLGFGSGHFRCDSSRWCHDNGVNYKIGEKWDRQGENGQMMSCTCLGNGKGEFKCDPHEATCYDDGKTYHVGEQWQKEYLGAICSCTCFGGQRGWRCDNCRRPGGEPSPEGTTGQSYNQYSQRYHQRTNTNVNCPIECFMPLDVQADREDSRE

- PLA mean staining intensity: 0.284
Substance: endoplasmic reticulum protein 57 (ERp57) (from UniProt P30101 25-505) (enzyme)
